# Target: T1, FcγRIIIa (human, UniProt P08637 17-208)
# T1 construct: extracellular domain; also called 3a; FcγRIIIa extracellular domain
# Experiment: SPR (Biacore);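 also: antibody variants captured on an SPR sensor chip, with FcγRIIIa passed over as analyte in HBS-EP+ buffer at 25 °C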
# T1 sequence (P08637 other isoform, or with tags, fused parts or gaps): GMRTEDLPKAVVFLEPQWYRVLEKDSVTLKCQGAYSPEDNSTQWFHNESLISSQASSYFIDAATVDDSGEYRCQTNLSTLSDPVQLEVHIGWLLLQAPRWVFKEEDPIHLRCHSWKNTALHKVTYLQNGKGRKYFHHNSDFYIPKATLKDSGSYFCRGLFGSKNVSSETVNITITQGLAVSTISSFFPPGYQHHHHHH
row,He/Con 3a,Binder
1,99.5 % of GpH7-A5/GpH7-B3/GpL16-k0,"GpH7-A5/GpH7-B3 variant L234_07I/GpL16-k0 (antibody, human IgG1, kappa, copies: 1 + 1 + 2) heavy 1: not shown heavy 2: not shown light: DIVMTQSPLSLPVTPGEPASISCQASESLVHSNRNTYLHWYLQKPGQSPQLLIYKVSNRFSGVPDRFSGSGSGTDFTLKISRVEAEDVGVYYCSQNTHVPPTFGQGTKVEIERTVAAPSVFIFPPSDEQLKSGTASVVCLLNNFYPREAKVQWKVDNALQSGNSQESVTEQDSKDSTYSLSSTLTLSKADYEKHKVYACEVTHQGLSSPVTKSFNRGEC"
2,76.8 % of GpH7-A5/GpH7-B3/GpL16-k0,"GpH7-A5/GpH7-B3 variant L234_16H/GpL16-k0 (antibody, human IgG1, kappa, copies: 1 + 1 + 2) heavy 1: not shown heavy 2: not shown light: DIVMTQSPLSLPVTPGEPASISCQASESLVHSNRNTYLHWYLQKPGQSPQLLIYKVSNRFSGVPDRFSGSGSGTDFTLKISRVEAEDVGVYYCSQNTHVPPTFGQGTKVEIERTVAAPSVFIFPPSDEQLKSGTASVVCLLNNFYPREAKVQWKVDNALQSGNSQESVTEQDSKDSTYSLSSTLTLSKADYEKHKVYACEVTHQGLSSPVTKSFNRGEC"
3,69.8 % of GpH7-A5/GpH7-B3/GpL16-k0,"GpH7-A5/GpH7-B3 variant L234_14T/GpL16-k0 (antibody, human IgG1, kappa, copies: 1 + 1 + 2) heavy 1: not shown heavy 2: not shown light: DIVMTQSPLSLPVTPGEPASISCQASESLVHSNRNTYLHWYLQKPGQSPQLLIYKVSNRFSGVPDRFSGSGSGTDFTLKISRVEAEDVGVYYCSQNTHVPPTFGQGTKVEIERTVAAPSVFIFPPSDEQLKSGTASVVCLLNNFYPREAKVQWKVDNALQSGNSQESVTEQDSKDSTYSLSSTLTLSKADYEKHKVYACEVTHQGLSSPVTKSFNRGEC"
4,68.6 % of GpH7-A5/GpH7-B3/GpL16-k0,"GpH7-A5/GpH7-B3 variant L235_05P/GpL16-k0 (antibody, human IgG1, kappa, copies: 1 + 1 + 2) heavy 1: not shown heavy 2: not shown light: DIVMTQSPLSLPVTPGEPASISCQASESLVHSNRNTYLHWYLQKPGQSPQLLIYKVSNRFSGVPDRFSGSGSGTDFTLKISRVEAEDVGVYYCSQNTHVPPTFGQGTKVEIERTVAAPSVFIFPPSDEQLKSGTASVVCLLNNFYPREAKVQWKVDNALQSGNSQESVTEQDSKDSTYSLSSTLTLSKADYEKHKVYACEVTHQGLSSPVTKSFNRGEC"
5,85.1 % of GpH7-A5/GpH7-B3/GpL16-k0,"GpH7-A5/GpH7-B3 variant L234_05P/GpL16-k0 (antibody, human IgG1, kappa, copies: 1 + 1 + 2) heavy 1: not shown heavy 2: not shown light: DIVMTQSPLSLPVTPGEPASISCQASESLVHSNRNTYLHWYLQKPGQSPQLLIYKVSNRFSGVPDRFSGSGSGTDFTLKISRVEAEDVGVYYCSQNTHVPPTFGQGTKVEIERTVAAPSVFIFPPSDEQLKSGTASVVCLLNNFYPREAKVQWKVDNALQSGNSQESVTEQDSKDSTYSLSSTLTLSKADYEKHKVYACEVTHQGLSSPVTKSFNRGEC"
6,72 % of GpH7-A5/GpH7-B3/GpL16-k0,"GpH7-A5/GpH7-B3 variant L235_02A/GpL16-k0 (antibody, human IgG1, kappa, copies: 1 + 1 + 2) heavy 1: not shown heavy 2: not shown light: DIVMTQSPLSLPVTPGEPASISCQASESLVHSNRNTYLHWYLQKPGQSPQLLIYKVSNRFSGVPDRFSGSGSGTDFTLKISRVEAEDVGVYYCSQNTHVPPTFGQGTKVEIERTVAAPSVFIFPPSDEQLKSGTASVVCLLNNFYPREAKVQWKVDNALQSGNSQESVTEQDSKDSTYSLSSTLTLSKADYEKHKVYACEVTHQGLSSPVTKSFNRGEC"
7,82.9 % of GpH7-A5/GpH7-B3/GpL16-k0,"GpH7-A5/GpH7-B3 variant L234_06M/GpL16-k0 (antibody, human IgG1, kappa, copies: 1 + 1 + 2) heavy 1: not shown heavy 2: not shown light: DIVMTQSPLSLPVTPGEPASISCQASESLVHSNRNTYLHWYLQKPGQSPQLLIYKVSNRFSGVPDRFSGSGSGTDFTLKISRVEAEDVGVYYCSQNTHVPPTFGQGTKVEIERTVAAPSVFIFPPSDEQLKSGTASVVCLLNNFYPREAKVQWKVDNALQSGNSQESVTEQDSKDSTYSLSSTLTLSKADYEKHKVYACEVTHQGLSSPVTKSFNRGEC"
8,85.6 % of GpH7-A5/GpH7-B3/GpL16-k0,"GpH7-A5/GpH7-B3 variant L235_10E/GpL16-k0 (antibody, human IgG1, kappa, copies: 1 + 1 + 2) heavy 1: not shown heavy 2: not shown light: DIVMTQSPLSLPVTPGEPASISCQASESLVHSNRNTYLHWYLQKPGQSPQLLIYKVSNRFSGVPDRFSGSGSGTDFTLKISRVEAEDVGVYYCSQNTHVPPTFGQGTKVEIERTVAAPSVFIFPPSDEQLKSGTASVVCLLNNFYPREAKVQWKVDNALQSGNSQESVTEQDSKDSTYSLSSTLTLSKADYEKHKVYACEVTHQGLSSPVTKSFNRGEC"
9,68.1 % of GpH7-A5/GpH7-B3/GpL16-k0,"GpH7-A5/GpH7-B3 variant L234_13S/GpL16-k0 (antibody, human IgG1, kappa, copies: 1 + 1 + 2) heavy 1: not shown heavy 2: not shown light: DIVMTQSPLSLPVTPGEPASISCQASESLVHSNRNTYLHWYLQKPGQSPQLLIYKVSNRFSGVPDRFSGSGSGTDFTLKISRVEAEDVGVYYCSQNTHVPPTFGQGTKVEIERTVAAPSVFIFPPSDEQLKSGTASVVCLLNNFYPREAKVQWKVDNALQSGNSQESVTEQDSKDSTYSLSSTLTLSKADYEKHKVYACEVTHQGLSSPVTKSFNRGEC"
10,56.7 % of GpH7-A5/GpH7-B3/GpL16-k0,"GpH7-A5/GpH7-B3 variant L235_01G/GpL16-k0 (antibody, human IgG1, kappa, copies: 1 + 1 + 2) heavy 1: not shown heavy 2: not shown light: DIVMTQSPLSLPVTPGEPASISCQASESLVHSNRNTYLHWYLQKPGQSPQLLIYKVSNRFSGVPDRFSGSGSGTDFTLKISRVEAEDVGVYYCSQNTHVPPTFGQGTKVEIERTVAAPSVFIFPPSDEQLKSGTASVVCLLNNFYPREAKVQWKVDNALQSGNSQESVTEQDSKDSTYSLSSTLTLSKADYEKHKVYACEVTHQGLSSPVTKSFNRGEC"
11,88.5 % of GpH7-A5/GpH7-B3/GpL16-k0,"GpH7-A5/GpH7-B3 variant L235_09D/GpL16-k0 (antibody, human IgG1, kappa, copies: 1 + 1 + 2) heavy 1: not shown heavy 2: not shown light: DIVMTQSPLSLPVTPGEPASISCQASESLVHSNRNTYLHWYLQKPGQSPQLLIYKVSNRFSGVPDRFSGSGSGTDFTLKISRVEAEDVGVYYCSQNTHVPPTFGQGTKVEIERTVAAPSVFIFPPSDEQLKSGTASVVCLLNNFYPREAKVQWKVDNALQSGNSQESVTEQDSKDSTYSLSSTLTLSKADYEKHKVYACEVTHQGLSSPVTKSFNRGEC"
12,114 % of GpH7-A5/GpH7-B3/GpL16-k0,"GpH7-A5/GpH7-B3 variant L234_04F/GpL16-k0 (antibody, human IgG1, kappa, copies: 1 + 1 + 2) heavy 1: not shown heavy 2: not shown light: DIVMTQSPLSLPVTPGEPASISCQASESLVHSNRNTYLHWYLQKPGQSPQLLIYKVSNRFSGVPDRFSGSGSGTDFTLKISRVEAEDVGVYYCSQNTHVPPTFGQGTKVEIERTVAAPSVFIFPPSDEQLKSGTASVVCLLNNFYPREAKVQWKVDNALQSGNSQESVTEQDSKDSTYSLSSTLTLSKADYEKHKVYACEVTHQGLSSPVTKSFNRGEC"
